Test system: MS2 coat protein
Assay: apparent KD of MS2 coat protein; higher = weaker reporter binding
Settings: Eterna round: R107
Outline: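 Designed RNA switches, transcribed on-chip from Illumina sequencing clusters, were titrated with SNAP-549-labelled MS2 coat protein from 0.7 or 1.5 nM to 3 µM in twofold steps. The solution was 100 mM Tris-HCl pH 7.5, 80 mM KCl, 4 mM MgCl2, with constant ligand or without it. Apparent KD is the median over each design's normalised cluster binding-curve fits.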

[1] = input ligand: theophylline 20 uM
[2] = input ligand: theophylline 2 mM
[3] = input ligand: tryptophan 2.4 mM

Sequence	apparent KD of MS2 coat protein (input ligand: arginine 13.2 mM) [nM]	apparent KD of MS2 coat protein (input ligand: none) [nM]	apparent KD of MS2 coat protein [1] [nM]	apparent KD of MS2 coat protein [2] [nM]	apparent KD of MS2 coat protein [3] [nM]
UCGGGCAGAGCGGCCGCCACUGUUUGGCAUGCGGAUGAAGGAACAUGAGGAUCACCCAUGUAGAUUAGGACCGGGCUGGCGGAGA [jjhemullin]	17.3	20.1	19.2	39.4	36.5
UCGGGCAUAGCGGCCGCCACUGUUUGGCGUGCGGAUGACGGAACAUGAGGAUCACCCAUGUUGUUUAGGACCGGGCUUGCGUCGU [zyzmullin]	14		17.8	14.5	
UCGGUGCUCUACAUGAGGAUCACCCAUGUCCGAGGACCGGUACGGCCGCCACUCGCAAUCAAACAGACGUGGGCCAACUUUGCGU [Tiribeesqu]	11		12.1	11	
UCGUGUAUAUCGGAUACCAGUGAAAUCGAUACAUGAGGAUCACCCAUGUGAGAGGAUGUACACCCUUGGCAGCUGUAUAUAUCUA	19.5		28.5		25.1
UCGUGUAUUUCGGAUACCAGUGAAAUCGAUACAUGAGGAUCACCCAUGUGAGAGGAUGUACACCCUUGGCAGCUGUCUGUAUCUG [cxezmullin]	14.6		20.2		15.5
UCGUUUUAGUCGGCCGCCACUGUAUGCAUGUUUAACAUGAGGAUCACCCAUGUCCCGUUCUAUUUCAGGACCGGGACGUAAUCGA [JR_SSTryptoB_Sub008]	106		382	619	
UCUAACAUGAGGAUCACCCAUGUGGGUUAUCGAGGACCGGUACGGCCGCCACUCGACCAGUAUAACUGGCUAGAACGUAUUUGAU [theeternabot_sameState_MS2_Trp_A_34]	31.1		53.6	49.4	
UCUCAAGGCCGCUCGGUGCUCCCUGGUGAUACCAGCCAUAUAUCCGGCCCUUGGCAGCACAUGAGGAUCACCCAUGUAGCAGGCG [Sorimaat]	18	24	41.6	8.54	28.1
UCUUGAGUUUCGGAUACCAGUGUUGUCGAUACAUGAGGAUCACCCAUGUUAGAGGAUGUACACCCUUGGCAGCCGGCUGUGGCGG [zszmullin]	13.7		21.9		19
UCUUGAGUUUCGGAUACCAGUGUUGUCGAUACAUGAGGAUCACCCAUGUUAGAGGAUGUACACCCUUGGCAGCCGGGUGUGGCGG [tftmullin]	12.2	14.5	14.7	12.6	15.5
UGACAUUGCUCAGAUACCAGACACGAGGAUCACCCGUGUGCCAACAAGUACAAAAUAAAUGUCCCUUGGCAGCUGAGCAAUGUCU [TheoBX 24 #MS2Left #AlternativeMS2 #Theo22]	11.9	12.2	16	26.1	12.2
UGACAUUGCUCAGAUACCAGACAUGAGCAUCAGCCAUGUGCCAACAAGUACAAAAUAAAAGUCCCUUGGCAGCUGAGCAAUGUCU [TheoBX 21 #MS2Left #AlternativeMS2 #Theo2]	11.3	9.88	11.3	29.1	10.6
UGACAUUGCUCAGAUACCAGACAUGAGCAUCAGCCAUGUGCCAACAAGUACAUAAUAAAUGUCCCUUGGCAGCUGAGCAAUGUCU [TheoBX 16 #MS2Left #Theo2 #AlternativeMS2]	14.3	13	20.5	149	12.7
UGACAUUGCUCAGAUACCAGACAUGAGGAUCACCCAUGUACCAAGGUACGAAAAUAACAUGUCCCUUGGCAGCUGAGCAAUGUCU [First try 2 #MS2Left #Theo2]	16.7		27.6		12.4
UGACAUUGCUCAGAUACCAGACGUGAGCAUCAGCCAUGUGCCAACAAGUACAAAAUAAAUGUCCCUUGGCAGCUGAGCAAUGUCU [TheoBX 22 #MS2Left #AlternativeMS2 #Theo22]	18.5		23.4	175	16.9
UGACAUUGCUCAGAUACCAGACGUGAGGAUCACCCACGUGCCAACAAGUACAAAAUAAAUGUCCCUUGGCAGCUGAGCAAUGUCU [TheoBX 26 #MS2Left #AlternativeMS2 #Theo22]	9.64	9.95	12.7	14.1	10.9
UGACAUUGCUGCGAUACCAGACAUGAGGAUCACCCAUGUACCAAGGUAAGAAAAUAACAUGUCCCUUGGCAGCGCAGCAAUGUCU [MAT - Exclusion Theophlline B - Mod of Eli - D1]	18.9		40.2		14.4
UGACGAUACCUGGAUACCAGCGACAUGAGGAUCACCCAUGUAUGAGGAUCAGCCAUGAUAUGCCCUUGGCAGCCACGAAAGUCUU [VUVMULLIN]	16.8	15.8	27.5	150	18.6

Source: the supplement of paper PMC9170038
